B1: H1_L1.71 (antibody, V domains shown)
VH: EVQLLESGGGLVQPGGSLRLSCAASGFTFSSYAMSWVRQAPGKGLEWVSTISGSGDSTYYADSVKGRFTISRDNSKNTLYLQMNSLRAEDTAVYYCAKSGPGLRQVGFDYWGQGTLVTVSS
VL: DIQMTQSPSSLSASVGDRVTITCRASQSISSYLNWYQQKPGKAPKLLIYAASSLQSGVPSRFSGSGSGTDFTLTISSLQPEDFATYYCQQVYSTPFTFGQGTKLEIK
B2: H1.1_L1 (antibody, V domains shown)
VH: EVQLLESGGGLVQPGGSLRLSCAASGFTFSSYYMSWVRQAPGKGLEWVSTISGSGDSTYYADSVKGRFTISRDNSKNTLYLQMNSLRAEDTAVYYCAKSGPGLRQVGFDYWGQGTLVTVSS
VL: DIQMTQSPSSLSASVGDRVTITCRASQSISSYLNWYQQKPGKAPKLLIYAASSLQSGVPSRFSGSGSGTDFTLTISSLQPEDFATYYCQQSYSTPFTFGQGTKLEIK
B3: H1.1_L1.71 (antibody, V domains shown)
VH: EVQLLESGGGLVQPGGSLRLSCAASGFTFSSYYMSWVRQAPGKGLEWVSTISGSGDSTYYADSVKGRFTISRDNSKNTLYLQMNSLRAEDTAVYYCAKSGPGLRQVGFDYWGQGTLVTVSS
VL: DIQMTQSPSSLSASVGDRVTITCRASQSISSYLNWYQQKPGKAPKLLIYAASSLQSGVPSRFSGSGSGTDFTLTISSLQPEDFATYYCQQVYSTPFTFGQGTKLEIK
B4: H1L1 (antibody, V domains shown)
VH: EVQLLESGGGLVQPGGSLRLSCAASGFTFSSYAMSWVRQAPGKGLEWVSTISGSGDSTYYADSVKGRFTISRDNSKNTLYLQMNSLRAEDTAVYYCAKSGPGLRQVGFDYWGQGTLVTVSS
VL: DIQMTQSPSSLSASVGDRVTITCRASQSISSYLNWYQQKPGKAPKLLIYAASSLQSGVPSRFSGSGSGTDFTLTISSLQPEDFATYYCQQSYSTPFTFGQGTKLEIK

Among the data in US20250122299A1 (published 2025) are Kd values, retold here.

For this assay, the target named is human CD28 (human, UniProt P10747 19-220). As to the kind of experiment: -; scFv VHVL, 1+1 Fab-scFv-Fc format.
In the case of B1, the Kd stood at 180 nM. With B2 the figure was 600 nM; with B3, 96 nM. In the case of B4 it was 1000 nM.

One may read the Kd as the equilibrium constant for the complex coming apart.
